Results published in PMC3521757, “Spastin's Microtubule-Binding Properties and Comparison to Katanin” (PLoS ONE, 2012).
Blank lines part the entries; values can stand above or below the molecule they belong to.

Legend:
[1] = target: microtubules (native, from pig brain tubulin) (pig) (UniProt P02550); test: single-molecule TIRF microscopy; microtubules attached to the flow cell; 10 nM GFP-enzyme; buffer 5 with 160 mM NaCl (ionic strength 0.225 M); 1 mM ATP; mono-exponential lifetime; details: for landing rate: scale: (10 µm)^−1 ·
[2] = target: microtubules (native, from pig brain tubulin) (pig) (UniProt P02550); test: single-molecule TIRF microscopy; microtubules attached to the flow cell; 10 nM GFP-enzyme; buffer 5 with 300 mM NaCl (ionic strength 0.365 M); 1 mM ATP; mono-exponential lifetime; details: for landing rate: scale: (10 µm)^−1 ·
[3] = target: microtubules (native, from pig brain tubulin) (pig) (UniProt P02550); test: single-molecule TIRF microscopy; microtubules attached to the flow cell by anti-tubulin antibody; 5–10 nM GFP-enzyme in solution; 1 mM ATP; landing rates and dwell times from kymographs; details: for landing rate: scale: (10 µm)^−1 ·
[4] = target: microtubules (native, from pig brain tubulin) (pig) (UniProt P02550); test: single-molecule TIRF microscopy; microtubules attached to the flow cell by anti-tubulin antibody; 5–10 nM GFP-enzyme in solution; 1 mM ATP-γS; landing rates and dwell times from kymographs; details: for landing rate: scale: (10 µm)^−1 ·
[5] = target: microtubules (native, from pig brain tubulin) (pig) (UniProt P02550); test: single-molecule TIRF microscopy; microtubules attached to the flow cell; 10 nM GFP-enzyme; buffer 5 with 80 mM NaCl (ionic strength 0.145 M); 1 mM ATP; dwell time is a mean, not an exponential fit; details: for landing rate: scale: (10 µm)^−1 ·
[6] = target: microtubules (native, from pig brain tubulin) (pig) (UniProt P02550); test: co-sedimentation; constant microtubule concentration (1 µM for spastin, 2 µM for katanin), increasing enzyme; 1 mM ADP; BRB80, room temperature, 100,000 g; stoichiometry by extrapolation of the saturation curve
[7] = target: microtubules (native, from pig brain tubulin) (pig) (UniProt P02550); test: co-sedimentation; constant microtubule concentration (1 µM for spastin, 2 µM for katanin), increasing enzyme; 1 mM ATP-γS; BRB80, room temperature, 100,000 g; stoichiometry by extrapolation of the saturation curve
[8] = target: microtubules (native, from pig brain tubulin) (pig) (UniProt P02550); test: single-molecule TIRF microscopy; microtubules attached to the flow cell by anti-tubulin antibody; 5–10 nM GFP-enzyme in solution; 1 mM AMPPNP; landing rates and dwell times from kymographs; dwell times are lower limits; details: for landing rate: scale: (10 µm)^−1 ·
[9] = target: microtubules (native, from pig brain tubulin) (pig) (UniProt P02550); test: co-sedimentation; fixed E309Q-katanin concentration, variable microtubule concentrations (native or subtilisin-treated, up to 4 µM); 100,000 g, BRB80, room temperature; SDS-PAGE of supernatants and pellets
[10] = target: subtilisin-treated microtubules (pig) (UniProt P02550); test: as above
[11] = target: microtubules (native, from pig brain tubulin) (pig) (UniProt P02550); test: co-sedimentation; constant microtubule concentration (1 µM for spastin, 2 µM for katanin), increasing enzyme; 1 mM ATP; BRB80, room temperature, 100,000 g; stoichiometry by extrapolation of the saturation curve
[12] = target: microtubules (native, from pig brain tubulin) (pig) (UniProt P02550); test: co-sedimentation; fixed katanin construct concentration (1 µM), increasing microtubule concentrations (0 to 10 µM); band density fitted to a Hill function
[13] = target: the molecule itself; test: non-reducing SDS-PAGE; coiled coil wild type construct under oxidizing conditions (omission of reducing agents), compared with 1 mM mercapto-ethanol

Sequence of subtilisin-treated microtubules (pig) (P02550 whole entry, chain 1 of 2): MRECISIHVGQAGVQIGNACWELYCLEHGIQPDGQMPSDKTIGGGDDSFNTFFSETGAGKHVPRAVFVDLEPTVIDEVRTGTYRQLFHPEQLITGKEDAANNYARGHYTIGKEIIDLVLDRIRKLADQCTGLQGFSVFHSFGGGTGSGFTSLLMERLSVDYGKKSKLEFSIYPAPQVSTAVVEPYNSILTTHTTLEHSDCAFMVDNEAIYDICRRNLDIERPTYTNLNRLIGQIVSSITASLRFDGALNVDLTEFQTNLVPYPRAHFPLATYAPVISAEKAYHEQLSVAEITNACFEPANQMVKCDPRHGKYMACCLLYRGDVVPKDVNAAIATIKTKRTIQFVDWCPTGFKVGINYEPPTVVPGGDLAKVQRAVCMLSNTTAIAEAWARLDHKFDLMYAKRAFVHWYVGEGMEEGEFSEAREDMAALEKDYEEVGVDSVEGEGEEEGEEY
Sequence of subtilisin-treated microtubules (pig) (Q767L7 whole entry, chain 2 of 2, further chain): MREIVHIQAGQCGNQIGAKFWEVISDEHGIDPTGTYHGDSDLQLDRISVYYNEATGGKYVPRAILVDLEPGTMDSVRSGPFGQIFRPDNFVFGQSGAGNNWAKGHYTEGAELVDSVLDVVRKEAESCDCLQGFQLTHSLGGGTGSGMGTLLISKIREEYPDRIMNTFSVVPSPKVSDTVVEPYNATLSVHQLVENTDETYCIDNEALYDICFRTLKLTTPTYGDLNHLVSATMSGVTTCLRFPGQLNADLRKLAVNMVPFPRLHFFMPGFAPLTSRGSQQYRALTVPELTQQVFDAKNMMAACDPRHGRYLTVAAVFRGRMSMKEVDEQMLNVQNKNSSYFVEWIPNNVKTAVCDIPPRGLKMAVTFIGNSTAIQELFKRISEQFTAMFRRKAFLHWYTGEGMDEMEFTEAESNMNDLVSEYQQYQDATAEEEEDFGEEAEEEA

Molecule: GFP-FLAG HsKatanin (full-length katanin p60) (from UniProt O75449 1-491) (enzyme)
dwell time [1]: 5.6 s
koff/kon [1]: 2.82 10 nM 10 µm
landing rate [1]: 4.64
dwell time [2]: 2.5 s
koff/kon [2]: 13.6 10 nM 10 µm
landing rate [2]: 1.93
dwell time [3]: 4.02 s
koff/kon [3]: 1.06 10 nM 10 µm
landing rate [3]: 14.1
dwell time [4]: 10.1 s
koff/kon [4]: 0.684 10 nM 10 µm
landing rate [4]: 8.73
dwell time [5]: 7.3 s
koff/kon [5]: 0.609 10 nM 10 µm
landing rate [5]: 15.8
stoichiometry N (enzyme∶tubulin) [6]: 1.1
stoichiometry N (enzyme∶tubulin) [7]: 2.8
dwell time [8]: > 246 s
koff/kon [8]: 0.118 10 nM 10 µm
landing rate [8]: 2.06

Molecule: spastin E442Q mutant (from UniProt Q9UBP0 227-616) (domain or fragment)
stoichiometry N (enzyme∶tubulin) [6]: 1.3
stoichiometry N (enzyme∶tubulin) [11]: 2.7
stoichiometry N (enzyme∶tubulin) [7]: 2.2

B2: GFP-Δ227 HsSpastin (domain or fragment)
chain: SESGAVPKRKDPLTHTSNSLPRSKTVMKTGSAGLSGHHRAPSYSGLSMVSGVKQGSGPAPTTHKGTPKTNRTNKPSTPTTATRKKKDLKNFRNVDSNLANLIMNEIVDNGTAVKFDDIAGQDLAKQALQEIVILPSLRPELFTGLRAPARGLLLFGPPGNGKTMLAKAVAAESNATFFNISAASLTSKYVGEGEKLVRALFAVARELQPSIIFIDEVDSLLCERREGEHDASRRLKTEFLIEFDGVQSAGDDRVLVMGATNRPQELDEAVLRRFIKRVYVSLPNEETRLLLLKNLLCKQGSPLTQKELAQLARMTDGYSGSDLTALAKDAALGPIRELKPEQVKNMSASEMRNIRLSDFTESLKKIKRSVSPQTLEAYIRWNKDFGDTTV
dwell time [1]: 6.4 s
landing rate [1]: 4.07
dwell time [2]: 4.2 s
landing rate [2]: 1.61
dwell time [3]: 10.1 s
landing rate [3]: 22.7
dwell time [4]: 55.7 s
landing rate [4]: 21.2
dwell time [5]: 9.6 s
landing rate [5]: 24.2
dwell time [8]: > 254 s
landing rate [8]: 13.4

B3: coiled-coil-Δ227 HsSpastin construct (wild type) (other)
chain: AEECKRRYEKEKEKNARLKGKVEKLEIELARWRASESGAVPKRKDPLTHTSNSLPRSKTVMKTGSAGLSGHHRAPSYSGLSMVSGVKQGSGPAPTTHKGTPKTNRTNKPSTPTTATRKKKDLKNFRNVDSNLANLIMNEIVDNGTAVKFDDIAGQDLAKQALQEIVILPSLRPELFTGLRAPARGLLLFGPPGNGKTMLAKAVAAESNATFFNISAASLTSKYVGEGEKLVRALFAVARELQPSIIFIDEVDSLLCERREGEHDASRRLKTEFLIEFDGVQSAGDDRVLVMGATNRPQELDEAVLRRFIKRVYVSLPNEETRLLLLKNLLCKQGSPLTQKELAQLARMTDGYSGSDLTALAKDAALGPIRELKPEQVKNMSASEMRNIRLSDFTESLKKIKRSVSPQTLEAYIRWNKDFGDTTV
modifications: disulphide bridge between the cysteines introduced in the coiled coil domain (oxidizing conditions)
stoichiometry N [13]: 2

B4: Kat12 (domain or fragment)
chain: MSLLMISENVKLAREYALLGNYDSAMVYYQGVLDQMNKYLYSVKDTYLQQKWQQVWQEINVEAKHVKDIMKTLESFKLDSTPLKAAQHDLPASEGEVWSMPVPVERRPSPGPRKRQSSQYSDPKSHGNRPSTTVRVHRSSAQNVHNDRGKAVRCREKKEQNKGREEKNKSPAAVTEPETNK
half-maximal saturation (microtubule concentration) [12]: 0.34 µM

Further lines, results first:

half-maximal saturation (microtubule concentration) [9]: 0.4 µM
fold reduction of affinity against native microtubules [10]: > 10 fold
fraction bound at 4 µM microtubules [10]: < 0.33
stoichiometry N (enzyme∶tubulin) [6]: 1.1
stoichiometry N (enzyme∶tubulin) [11]: 3
stoichiometry N (enzyme∶tubulin) [7]: 2.8
Molecule: katanin E309Q (Walker B mutant) (from UniProt O75449 1-491) (enzyme)

stoichiometry N (enzyme∶tubulin) [6]: 1.4
stoichiometry N (enzyme∶tubulin) [7]: 2.1
Molecule: wild type spastin (co-sedimentation assays) (from UniProt Q9UBP0 227-616) (domain or fragment)

half-maximal saturation (microtubule concentration) [12]: 0.4 µM
B1: Kat2 (domain or fragment)
chain: WQEINVEAKHVKDIMKTLESFKLDSTPLKAAQHDLPASEGEVWSMPVPVERRPSPGPRKRQSSQYSDPKSHGNRPSTTVRVHRSSAQNVHNDRGKAVRCREKKEQNKGREEKNKSPAAVTEPETNK
